Data as given in article PMC10570038, “Cell-type specific regulator RBPMS switches alternative splicing via higher-order oligomerization and heterotypic interactions with other splicing regulators” (Nucleic Acids Research, 2023).

Legend:
[1] = target: the molecule itself; test: AUC; sedimentation velocity, 40 000 rpm, 20°C, 20 mM HEPES, 1 mM TCEP, pH 7.9, 500 mM KCl; FL and ΔC20 at equal molar concentration (0.46 and 0.57 mg/ml); continuous c(s) model
[2] = target: the molecule itself; test: SEC; size exclusion chromatography of purified untagged recombinant protein; compared with size markers (443 kDa marker, void volume)

B1: recombinant untagged full-length rat RBPMS-A (natural protein)
chain: not shown
notes: RBPMS isoform A (RBPMS-A), rat, cDNA NCBI XM_006253240.2; Exists as a mixture of dimers and higher-order oligomers; From pET15b-TEV-RBPMS-A; also called FL RBPMS; RBPMS-A FL; source: E. coli BL21(DE3), purified (HisTrap, TEV cleavage, Mono Q, Superdex 200); not shown: His6, N-terminal, cleaved
With B1 the “stoichiometry N” value [1] was ~21 and the “stoichiometry N” value [2] was 2.
